Experimental data as given in paper PMC7989959.

Target: alpha-synuclein (UniProt P37840 1-140)
Experiment: electrochemical current sensor

Question: Does GCCTGTGTTGGGGCGGGTGCG (ssDNA, 5'-SH (thiol)) [Abeta aptamer (Tsukakoshi et al)] bind?
Answer: Result: no binding
